The text below walks through data of patent publication US20130045305A1.

In test [1] the target is glutathione.
For test [2], the target named is Val-Gly.
The target of test [3] is glutathione. The source holds these as a separate data set.
Test [4] has as its target Val-Gly. This is another data set of the same source.

Regarding “Glutaminase Daiwa SD-C100S, Daiwa kasei (enzyme)”, the GSH (ppm) in the reaction mixture after reaction with glutaminase, no Val-Gly added in the test with glutathione [1] is 3.1 ppm. In the test with Val-Gly [2], the γ-Glu-Val-Gly (ppm) in the reaction mixture after reaction with glutaminase, 4000 ppm Val-Gly added was 16 ppm.
The molecule “Gsh2p (glutathione synthetase) of Saccharomyces cerevisiae (enzyme)” came in with a γ-EVG, µg 1^-1 OD600^-1, formed in cells cultured with 100 ppm γ-Glu-Val, strain S288C ura3Δ227/YEp24-PTDH3-GSH2 (µg 1^-1 OD600^-1) in the test with γ-Glu-Val of 705.
With “γ-Glutamyltranspeptidase from equine kidney, Sigma, Code G9270-100UN (enzyme)”, in the test with glutathione [3], the GSH (ppm) in the reaction mixture after reaction with γ-GTP, no Val-Gly added turned out to be 432 ppm. Further, the γ-Glu-Val-Gly (ppm) in the reaction mixture after reaction with γ-GTP, 4000 ppm Val-Gly added with Val-Gly [4] was determined as 340 ppm.

B1: Hgt1p of Saccharomyces cerevisiae (protein)
chain: MSTIYRESDSLESEPSPTPTTIPIQINMEEEKKDAFVKNIDEDVNNLTATTDEEDRDPESQKFDRHSIQEEGLVWKGDPTYLPNSPYPEVRSAVSIEDDPTIRLNHWRTWFLTTVFVVVFAGVNQFFSLRYPSLEINFLVAQVVCYPIGRILALLPDWKCSKVPFFDLNPGPFTKKEHAVVTIAVALTSSTAYAMYILNAQGSFYNMKLNVGYQFLLVWTSQMIGYGAAGLTRRWVVNPASSIWPQTLISVSLFDSLHSRKVEKTVANGWTMPRYRFFLIVLIGSFIWYWVPGFLFTGLSYFNVILWGSKTRHNFIANTIFGTQSGLGALPITFDYTQVSQAMSGSVFATPFYVSANTYASVLIFFVIVLPCLYFTNTWYAKYMPVISGSTYDNTQNKYNVTKILNEDYSINLEKYKEYSPVFVPFSYLLSYALNFAAVIAVFVHCILYHGKDIVAKFKDRKNGGTDIHMRIYSKNYKDCPDWWYLLLQIVMIGLGFVAVCCFDTKFPAWAFVIAILISLVNFIPQGILEAMTNQHVGLNIITELICGYMLPLRPMANLLFKLYGFIVMRQGLNLSRDLKLAMYMKVSPRLIFAVQIYATIISGMVNVGVQEWMMHNIDGLCTTDQPNGFTCANGRTVFNASIIWSLPKYLFSSGRIYNPLMWFFLIGLLFPLAVYAVQWKFPKFKFAKHIHTPVFFTGPGNIPPSTPYNYSLFFAMSFCLNLIRKRWRAWFNKYNFVMGAGVEAGVAISVVIIFLCVQYPGGKLSWWGNNVWKRTYDNDYKKFYTLKKGETFGYDKWW
In the test with γ-Glu-nVal-Gly, B1 registered an intracellular content of γ-Glu-nVal-Gly on the dry weight cell, 100 ppm added of 2.84%.
